Results reported in patent US20030059769, “High affinity nucleic acid ligands to lectins” (published 2003).

How the values were obtained:
L-selectin (LS-Rg) [1] = target: T1, L-selectin (LS-Rg) (Homo sapiens, UniProt P14151 P14151:39-332); experiment: filter; affinity similar to full length LD227; conditions: tags: human IgG2 Fc fusion; chain copies: 2 (stated dimer)
T1 sequence: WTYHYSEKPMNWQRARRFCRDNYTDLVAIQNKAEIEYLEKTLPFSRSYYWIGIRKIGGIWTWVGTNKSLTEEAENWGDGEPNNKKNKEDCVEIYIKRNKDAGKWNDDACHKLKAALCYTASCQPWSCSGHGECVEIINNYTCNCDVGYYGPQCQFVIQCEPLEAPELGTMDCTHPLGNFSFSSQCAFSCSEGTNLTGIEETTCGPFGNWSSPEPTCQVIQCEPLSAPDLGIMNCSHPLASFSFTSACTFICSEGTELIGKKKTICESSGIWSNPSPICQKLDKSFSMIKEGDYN

soluble L-selectin = target: T2, soluble L-selectin (Homo sapiens, UniProt P14151 P14151:39-332); experiment: filter; binding undetectable; Table 16 sequence differs from SEQ 358; conditions: tags: R&D Systems
T2 sequence: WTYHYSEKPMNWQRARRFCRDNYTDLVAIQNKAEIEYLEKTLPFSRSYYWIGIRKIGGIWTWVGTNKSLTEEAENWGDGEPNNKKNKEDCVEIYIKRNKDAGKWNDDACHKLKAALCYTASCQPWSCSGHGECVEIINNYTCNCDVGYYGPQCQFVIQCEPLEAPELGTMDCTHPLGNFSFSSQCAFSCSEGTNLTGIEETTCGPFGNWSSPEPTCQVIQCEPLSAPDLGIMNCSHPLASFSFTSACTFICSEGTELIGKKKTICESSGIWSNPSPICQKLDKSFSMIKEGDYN

P-selectin (PS-Rg) [2] = target: T3, P-selectin (PS-Rg) (Homo sapiens, UniProt P16109 P16109:42-321); experiment: filter; 37 C, HSMC; conditions: tags: human IgG1 Fc fusion; chain copies: dimer; label: 32P
T3 sequence (P16109 42-321, one chain of several): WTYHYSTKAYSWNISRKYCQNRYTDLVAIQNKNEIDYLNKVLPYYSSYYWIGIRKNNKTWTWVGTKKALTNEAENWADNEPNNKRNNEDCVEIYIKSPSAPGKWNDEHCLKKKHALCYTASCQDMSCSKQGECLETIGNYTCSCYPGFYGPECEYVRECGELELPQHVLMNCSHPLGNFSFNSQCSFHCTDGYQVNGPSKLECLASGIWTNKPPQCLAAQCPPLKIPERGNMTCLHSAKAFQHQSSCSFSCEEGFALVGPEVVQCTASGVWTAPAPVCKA

E-selectin (ES-Rg) [3] = target: T4, E-selectin (ES-Rg) (Homo sapiens, UniProt P16581 P16581:22-556); experiment: filter; specificity control; conditions: tags: human IgG1 Fc fusion; chain copies: dimer (inferred); label: 32P
T4 sequence: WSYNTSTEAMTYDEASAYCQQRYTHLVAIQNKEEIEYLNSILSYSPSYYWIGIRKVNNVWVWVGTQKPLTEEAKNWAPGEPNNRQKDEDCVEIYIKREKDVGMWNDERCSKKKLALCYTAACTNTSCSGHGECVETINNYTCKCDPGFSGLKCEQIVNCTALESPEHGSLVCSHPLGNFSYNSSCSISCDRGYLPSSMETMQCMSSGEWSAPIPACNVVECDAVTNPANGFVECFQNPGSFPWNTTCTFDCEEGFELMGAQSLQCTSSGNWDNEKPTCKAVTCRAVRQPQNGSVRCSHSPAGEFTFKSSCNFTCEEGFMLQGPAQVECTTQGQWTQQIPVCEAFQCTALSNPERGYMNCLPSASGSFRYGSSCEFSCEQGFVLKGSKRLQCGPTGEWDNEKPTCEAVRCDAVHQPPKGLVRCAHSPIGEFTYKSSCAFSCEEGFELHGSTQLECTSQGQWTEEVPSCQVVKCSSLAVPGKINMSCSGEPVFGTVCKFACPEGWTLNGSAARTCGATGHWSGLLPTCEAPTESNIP
Description: The affinity of P-selectin ligands to ES-Rg, LS-Rg and CD22β-Rg were determined by nitrocellulose partitioning. […] In general, a ligand's affinity for ES-Rg and LS-Rg is at least 10⁴-fold lower than for PS-Rg. […] The specificity of oligonucleotide ligand binding contrasts sharply with the binding of cognate carbohydrates by the selectins and confirms the proposition that SELEX ligands will have greater specificity than carbohydrate ligands.

L-selectin (LS-Rg) [4] = target: T1, L-selectin (LS-Rg); experiment: filter; affinity similar to full length LD201; conditions: tags: human IgG2 Fc fusion; chain copies: 2 (stated dimer)
L-selectin (LS-Rg) [5] = target: T1, L-selectin (LS-Rg); experiment: filter; affinity reduction versus full length LF1514; conditions: tags: human IgG2 Fc fusion; chain copies: 2 (stated dimer)
Description: (§1) As described in SELEX Patent Applications, a nitrocellulose filter partitioning method was used to determine the affinity of RNA ligands for LS-Rg and for other proteins. Filter discs (nitrocellulose/cellulose acetate mixed matrix, 0.45 μm pore size, Millipore) were placed on a vacuum manifold and washed with 3 ml of SHMCK 140 buffer under vacuum. Reaction mixtures, containing ³²P labeled RNA pools and unlabeled LS-Rg, were incubated in SHMCK 140 for 10-20 min at 37° C., and then immediately washed with 3 ml SHMCK 140. The filters were air-dried and counted in a Beckman LS6500 liquid scintillation counter without fluor. Alternatively, binding studies employed 96 well micro-titer manifolds essentially as described in Example 13, paragraph E.
(§2) Predictions of minimal high affinity sequences for family 1 ligands can be made and serve as a partial test of the postulated secondary structure.

L-selectin (LS-Rg) [6] = target: T1, L-selectin (LS-Rg); experiment: filter; room temperature; Table 13 prints 110 nM (probably pM), 380 pM at 37 C; conditions: tags: human IgG2 Fc fusion; chain copies: 2 (stated dimer)
Description: As described in SELEX Patent Applications and in Example 7, paragraph C, a nitrocellulose filter partitioning method was used to determine the affinity of ssDNA ligands for LS-Rg and for other proteins. For these experiments a Gibco BRL 96 well manifold was substituted for the 12 well Millipore manifold used in Example 7 and radioactivity was determined with a Fujix BAS100 phosphorimager. Bindin, data were analyzed as described in Example 7, paragraph C.

L-selectin (LS-Rg) [7] = target: T1, L-selectin (LS-Rg); experiment: filter; truncate at base of lower stem; conditions: tags: human IgG2 Fc fusion; chain copies: dimer; hairpin
[8] = target: T5, L-selectin on PBMC / lymphocytes (Homo sapiens, UniProt P14151 P14151:39-372); experiment: flow; half-saturation on human lymphocytes; divalent cation dependent; conditions: label: 32P or 5'-fluorescein (cells); hairpin
T5 sequence: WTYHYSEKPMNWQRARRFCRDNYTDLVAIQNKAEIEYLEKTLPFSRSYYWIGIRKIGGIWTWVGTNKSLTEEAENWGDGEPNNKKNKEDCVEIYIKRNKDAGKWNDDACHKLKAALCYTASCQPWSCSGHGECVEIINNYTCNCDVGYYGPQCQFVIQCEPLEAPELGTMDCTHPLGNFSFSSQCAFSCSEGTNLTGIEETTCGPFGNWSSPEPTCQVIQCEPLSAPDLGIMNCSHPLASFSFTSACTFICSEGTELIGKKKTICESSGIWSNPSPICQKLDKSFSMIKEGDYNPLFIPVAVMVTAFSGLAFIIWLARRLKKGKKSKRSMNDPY
Source text: (§3) A variety of monomeric nucleic acid ligands and multivalent Complexes have been examined in flow cytometry.

L-selectin (LS-Rg) [9] = target: T1, L-selectin (LS-Rg); experiment: inhibition; sialyl-LewisX competition ELISA; conditions: tags: human IgG2 Fc fusion; chain copies: 2 (stated dimer)
Description: SLe^X-BSA (Oxford GlycoSystems, Oxford, UK) in 1X PBS, without CaCl₂, and MgCl₂, (GIBCO/BRL) was immobilized at 100 ng/well onto a microtiter plate by overnight incubation at […]. The wells were blocked for 1 h with the assay buffer consisting of 20 mM HEPES, 111 mM NaCl, 1 mM CaCl₂, 1 mM MgCl₂, 5 mM KCl, 8.9 mM NaOH, final pH 8, and 1% globulin-free BSA (Sigma). The reaction mixtures, incubated for 90 min with orbital shaking, contained 5 nM L-Selectin-Rg, a 1:100 dilution of anti-human IgG-peroxidase conjugate (Sigma), and 0 - 50 ruM of competitor in assay buffer. After incubation, the plate was washed with BSA-free assay buffer to remove unbound chimera-antibody complex and incubated for 25 min with O-phenylenediamine dihydrochloride peroxidase substrate (Sigma) by shaking in the dark at 22°0 C. Absorbance was read at 450 nm on a Bio-Kinetics Reader, Model EL312e (Bio-Tek Instruments, Laguna Hills, Calif.). Values shown represent the mean ±s.e from duplicate, or triplicate, samples from one representative experiment.
Sialyl Lewis^X is the minimal carbohydrate ligand bound by selecting.

[10] = target: T5, L-selectin on PBMC / lymphocytes; experiment: flow; half-saturation; conditions: label: labeled streptavidin
Source text: as §3

L-selectin (LS-Rg) [11] = target: T1, L-selectin (LS-Rg); experiment: filter; upper stem and loop only; conditions: tags: human IgG2 Fc fusion; chain copies: dimer; hairpin
Description: as §1, §2

P-selectin (PS-Rg) [12] = target: T3, P-selectin (PS-Rg); experiment: filter; 37 C; 0.01 nM at 4 C; conditions: tags: human IgG1 Fc fusion; chain copies: dimer; label: 32P
E-selectin (ES-Rg) [13] = target: T4, E-selectin (ES-Rg); experiment: filter; specificity control; conditions: tags: human IgG1 Fc fusion; chain copies: dimer (inferred); label: 32P; remark: listed apart in the source
P-selectin (PS-Rg) [14] = target: T3, P-selectin (PS-Rg); experiment: inhibition; sialyl-LewisX; conditions: tags: human IgG Fc fusion; chain copies: 2 (stated dimer)
Description: The ability of evolved RNA pools or cloned ligands to inhibit the binding of PS-Rg to sialyl-Lewis^x was tested in competitive ELISA assays (C. Foxall et al., 1992, supra). For these assays, the wells of Corning (25801) 96 well microtiter plates were coated with 100 ng of a sialyl-Lewis^x/BSA conjugate, air dried overnight, washed with 300 μl of PBS(−) and then blocked with 1% BSA in HSMC for 60 min at room temperature. RNA ligands were incubated with PS-Rg in HSMC/1% BSA at room temperature for 15 min. After removal of the blocking solution, 50 μl of PS-Rg (10 nM) or a PS-Rg (10 nM)/RNA ligand mix was added to the coated, blocked wells and incubated at room temperature for 60 minutes. The binding solution was removed, wells were washed with 300 μl of PBS(−) and then probed with HRP conjugated anti-human IgG, at room temperature to quantitate PS-Rg binding. After a 30 minute incubation at room temperature in the dark with OPD peroxidase substrate (Sigma P9187), the extent of PS-Rg binding and percent inhibition was determined from the OD₄₅₀.

CD22beta (CD22b-Rg) = CD22beta (CD22b-Rg) (UniProt P20273 P20273:20-687); experiment: filter; no binding above background; conditions: tags: human IgG1 Fc fusion; chain copies: 2 (inferred)
P-selectin (PS-Rg) [15] = target: T3, P-selectin (PS-Rg); experiment: filter; HSMC; SLeX IC50 2 nM; conditions: tags: human IgG1 Fc fusion; chain copies: dimer; hairpin
[16] = target: P-selectin on activated platelets (Homo sapiens, UniProt P16109 P16109:42-830); experiment: flow; biotinylated, SA-PE; divalent cation dependent; blocked by G1 antibody; conditions: hairpin
Chain of P-selectin on activated platelets (P16109 42-830, one chain of several): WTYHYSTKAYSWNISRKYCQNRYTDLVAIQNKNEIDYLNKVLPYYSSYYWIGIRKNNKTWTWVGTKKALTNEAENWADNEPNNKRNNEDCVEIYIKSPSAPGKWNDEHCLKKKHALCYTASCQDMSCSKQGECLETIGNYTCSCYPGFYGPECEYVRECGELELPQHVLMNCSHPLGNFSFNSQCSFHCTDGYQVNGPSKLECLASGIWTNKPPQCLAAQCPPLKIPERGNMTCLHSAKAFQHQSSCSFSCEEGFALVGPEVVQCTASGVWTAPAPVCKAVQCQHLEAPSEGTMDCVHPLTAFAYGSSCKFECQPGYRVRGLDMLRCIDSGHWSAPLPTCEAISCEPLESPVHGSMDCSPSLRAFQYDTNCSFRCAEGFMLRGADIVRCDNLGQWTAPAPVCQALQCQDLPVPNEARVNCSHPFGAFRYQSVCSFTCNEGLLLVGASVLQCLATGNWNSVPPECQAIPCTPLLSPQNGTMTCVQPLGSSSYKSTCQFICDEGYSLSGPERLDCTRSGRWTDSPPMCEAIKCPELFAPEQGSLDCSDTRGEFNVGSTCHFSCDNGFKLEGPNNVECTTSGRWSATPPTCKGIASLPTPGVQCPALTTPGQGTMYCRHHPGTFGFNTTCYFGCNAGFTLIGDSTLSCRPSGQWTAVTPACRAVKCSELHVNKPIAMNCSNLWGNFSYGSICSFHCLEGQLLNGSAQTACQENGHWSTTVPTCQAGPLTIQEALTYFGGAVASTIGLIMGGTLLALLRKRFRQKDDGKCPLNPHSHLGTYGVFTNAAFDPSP
Description: To detect oligonucleotide ligand binding, 15 μl BB+ containing ligand conjugated to either FITC or biotin was incubated 20-30 minutes at 4° C. with 10 μl platelet suspension. The FITC-figand incubations were diluted to 200 μl with BB+ and analyzed on a FACSCaliber flow cytometer. The biotinylated-ligand reactions were incubated with streptavidin-phycoehrin (SA-PE) (Becton Dickinson) for 20 minutes at 4° C., before dilution and analysis. Wash steps with 500 μl BB+ and 700 ×g spins have been used without compromising the quality of the results.
Since the P-selectin ligands were isolated against purified protein, their ability to bind P-selectin presented in the context of a cell surface was determined in flow cytometry experiments with activated human platelets. Platelets were gated by side scatter and CD61 expression. […] The expression of P-selectin was monitored with anti-CD62P monoclonal antibody (Becton Dickinson).

L-selectin (LS-Rg) [17] = target: T1, L-selectin (LS-Rg); experiment: filter; 37 C; lacks 7-nt bulge; conditions: tags: human IgG2 Fc fusion; chain copies: dimer; label: 32P; hairpin lacking bulge
Description: as §1
These calculations assume two ligand binding sites per chimera.

With CGCGCGTTACAAGGTGCTAAACGTAACGTACTTGCTTACTCGCG (ssDNA) [LD227X1] the binding signal (L-selectin (LS-Rg) [1]) was roughly 1 fold.

B1: LF1535 (ssRNA)
RNA: GGGAGGACGAUGCGGCAAUGUGUUUCUCAAAUUGCUUUCUCCCUUCAGACGACUCGCCCGA
modifications: 2'-F C and U
B1: no binding (soluble L-selectin).

B2: PF377 (ssRNA)
RNA: GGGAGACAAGAAUAAACGCUCAACGAGCCAGGAACAUCGACGUCAGCAAACGCGAGCGCAACCAGUAACACCUUCGACAGGAGGCUCACAACAGGC
modifications: 2'-F on all C and U
B2 gave a Kd (P-selectin (PS-Rg) [2]) of 0.0185 nM and a Kd (E-selectin (ES-Rg) [3]) of 2300 nM.

CGCGGTAACCAGTACAAGGTGCTAAACGTAATGGCGCG (ssDNA) [LD201T10] was tested, and the binding signal (L-selectin (LS-Rg) [4]) was roughly 1 fold.

CUCAAAUUGCGUGUUUUCAAGCA (ssRNA, 2'-F C and U) [LF1514T2] showed a binding signal (L-selectin (LS-Rg) [5]) of no less than 100 fold.

B3: LD233 (ssDNA)
DNA: CTACCTACGATCTGACTAGCCACGACAGAGAACAAGGCGTTAGACGTTATCCGACCACGGCTTACTCTCATGTAGTTCC
With B3 the Kd (L-selectin (LS-Rg) [6]) was 0.12 nM.

For GGUACCUCAAAUUGCGUGUUUUCAAGCAGUAUC (ssRNA, 2'-F on all C and U) [LF1514T4], the binding signal (L-selectin (LS-Rg) [7]) was less than 2 fold weaker than LF1514.

Work on TAGCCAAGGTAACCAGTACAAGGTGCTAAACGTAATGGCTTCGGCTTAC (ssDNA) [LD201T1] yielded a Kd [8] of 3 nM and an IC50 (L-selectin (LS-Rg) [9]) of roughly 3 nM.

For TAGCCAAGGTAACCAGTACAAGGTGCTAAACGTAATGGCTTCGGCTTAC (ssDNA, biotin, multivalent on streptavidin) [bio-LD201T1/streptavidin], the EC50 [10] was roughly 0.15 nM.

Binder UGCGUGUUUUCAAGCA (ssRNA, 2'-F on all C and U) [LF1514T1] has a binding signal (L-selectin (LS-Rg) [11]) of no less than 100 fold weaker than LF1514.

B4: PA350 (ssRNA)
RNA: GGGAGACAAGAAUAAACGCUCAAGCCCCAAACGCAAGUGAGCAUCCGCAACAGGGAAGAAGACAGACGAUUGAUUCGACAGGAGGCUCACAACAGGC
modifications: 2'-NH2 on all C and U
Work on B4 yielded a Kd (P-selectin (PS-Rg) [12]) of 0.06 nM and a Kd (E-selectin (ES-Rg) [13]) of 375 nM.

B5: PA350 (ssRNA)
RNA: GGGAGACAAGAAUAAACGCUCAAGCCCCAAACGCAAGUGAGCAUCCGCAACAGGGAAGAAGACAGACGAUUGAUUCGACAGGAGGCUCACAACAGGC
modifications: 2'-NH2 C and U
For B5, the IC50 (P-selectin (PS-Rg) [14]) was 2 nM and the binding result (CD22beta (CD22b-Rg)) was “no binding”.

In the case of CUCAACGAGCCAGGAACAUCGACGUCAGCAAACGCGAG (ssRNA, 2'-F on all C and U) [PF377s1], the Kd (P-selectin (PS-Rg) [15]) is reported as 0.06 nM and the EC50 [16] is reported as roughly 0.05 nM.

B6: LF1512 (ssRNA)
RNA: GGGAGGACGAUGCGGCACACGUGUUUUCAAGUGUGCUCCUGGGAUCAGACGACUCGCCCGA
modifications: 2'-F on all C and U
For B6, the Kd (L-selectin (LS-Rg) [17]) was 315 nM.
